In patent publication US5620849 one finds binding signal data, which are given here for one sequence.

In the data set the target is E1/E2 complex (Bovine papillomavirus type 1) (UniProt P03116+P03122). Nature of the data set: footprint. The note with it: E1 plus 100 ng E2: equivalent protection of E1 site at 10-fold lower E1 than without E2.
UniProt P03116, sequence (P03116 whole entry, chain 1 of 2): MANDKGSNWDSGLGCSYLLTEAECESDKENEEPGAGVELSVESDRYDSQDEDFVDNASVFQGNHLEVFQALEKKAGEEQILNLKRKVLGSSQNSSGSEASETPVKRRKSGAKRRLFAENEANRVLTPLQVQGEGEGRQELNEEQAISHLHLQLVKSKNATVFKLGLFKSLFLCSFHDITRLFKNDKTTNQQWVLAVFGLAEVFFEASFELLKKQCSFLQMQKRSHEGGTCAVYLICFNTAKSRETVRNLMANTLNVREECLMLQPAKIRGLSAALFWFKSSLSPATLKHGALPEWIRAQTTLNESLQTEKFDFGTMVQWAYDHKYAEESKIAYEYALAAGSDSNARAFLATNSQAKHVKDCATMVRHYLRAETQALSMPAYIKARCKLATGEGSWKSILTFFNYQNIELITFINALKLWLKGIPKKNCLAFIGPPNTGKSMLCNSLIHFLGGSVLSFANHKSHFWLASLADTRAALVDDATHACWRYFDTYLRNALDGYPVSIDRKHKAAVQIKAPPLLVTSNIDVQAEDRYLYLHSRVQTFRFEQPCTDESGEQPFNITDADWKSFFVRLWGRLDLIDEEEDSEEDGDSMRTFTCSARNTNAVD
UniProt P03116, sequence (P03122 whole entry, chain 2 of 2): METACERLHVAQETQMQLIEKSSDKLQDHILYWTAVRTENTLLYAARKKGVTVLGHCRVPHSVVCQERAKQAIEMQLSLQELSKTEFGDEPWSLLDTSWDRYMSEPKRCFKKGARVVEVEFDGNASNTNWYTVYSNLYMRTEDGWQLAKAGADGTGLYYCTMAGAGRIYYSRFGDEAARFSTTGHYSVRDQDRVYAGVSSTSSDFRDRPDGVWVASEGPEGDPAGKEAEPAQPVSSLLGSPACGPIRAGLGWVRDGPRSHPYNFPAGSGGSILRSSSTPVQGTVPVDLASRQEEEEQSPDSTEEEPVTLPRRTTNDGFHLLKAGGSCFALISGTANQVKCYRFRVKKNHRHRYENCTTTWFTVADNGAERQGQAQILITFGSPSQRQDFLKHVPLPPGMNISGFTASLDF

Regarding “ACCGAAACCGGTAAGTAAAGACTATGTATTTTTTCCCAGTGAATANBBRBBRBBNNCNNBNNBCACACCATCACCGTT (double strand) [pKSO BPV origin fragment (7805-100)]”, the binding signal worked out at 10 fold.
